Where “and” joins values, the source holds several entries; their conditions need not be identical. Equal entries are not always repeated.

In test [1] the target is COOH-terminal region of dystrophin construct (C2979) (UniProt P11532). In words: co-IP.
Test [2] addresses COOH-terminal region of utrophin construct (TDRII) (UniProt P46939). As to the kind of experiment: co-IP.
UniProt P46939, sequence (P46939 2753-3432): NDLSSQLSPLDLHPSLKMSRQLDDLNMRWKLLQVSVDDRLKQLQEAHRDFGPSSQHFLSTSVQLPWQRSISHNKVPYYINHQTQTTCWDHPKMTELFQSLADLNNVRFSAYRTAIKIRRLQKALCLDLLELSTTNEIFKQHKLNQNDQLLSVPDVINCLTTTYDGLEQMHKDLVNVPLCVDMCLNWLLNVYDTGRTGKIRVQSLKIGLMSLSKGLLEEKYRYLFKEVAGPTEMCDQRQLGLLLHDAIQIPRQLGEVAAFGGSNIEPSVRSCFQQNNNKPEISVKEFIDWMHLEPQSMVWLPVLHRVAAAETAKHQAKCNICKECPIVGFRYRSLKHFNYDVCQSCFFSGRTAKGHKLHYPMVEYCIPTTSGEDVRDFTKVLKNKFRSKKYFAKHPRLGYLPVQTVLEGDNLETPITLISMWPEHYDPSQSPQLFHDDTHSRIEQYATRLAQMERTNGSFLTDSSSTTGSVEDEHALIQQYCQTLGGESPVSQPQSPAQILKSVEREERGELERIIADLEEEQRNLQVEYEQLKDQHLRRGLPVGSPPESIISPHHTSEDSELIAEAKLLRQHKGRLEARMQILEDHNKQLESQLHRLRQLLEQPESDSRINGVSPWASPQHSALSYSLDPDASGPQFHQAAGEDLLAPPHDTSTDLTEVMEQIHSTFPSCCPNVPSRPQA

UniProt P11532, sequence (P11532 2980-3685): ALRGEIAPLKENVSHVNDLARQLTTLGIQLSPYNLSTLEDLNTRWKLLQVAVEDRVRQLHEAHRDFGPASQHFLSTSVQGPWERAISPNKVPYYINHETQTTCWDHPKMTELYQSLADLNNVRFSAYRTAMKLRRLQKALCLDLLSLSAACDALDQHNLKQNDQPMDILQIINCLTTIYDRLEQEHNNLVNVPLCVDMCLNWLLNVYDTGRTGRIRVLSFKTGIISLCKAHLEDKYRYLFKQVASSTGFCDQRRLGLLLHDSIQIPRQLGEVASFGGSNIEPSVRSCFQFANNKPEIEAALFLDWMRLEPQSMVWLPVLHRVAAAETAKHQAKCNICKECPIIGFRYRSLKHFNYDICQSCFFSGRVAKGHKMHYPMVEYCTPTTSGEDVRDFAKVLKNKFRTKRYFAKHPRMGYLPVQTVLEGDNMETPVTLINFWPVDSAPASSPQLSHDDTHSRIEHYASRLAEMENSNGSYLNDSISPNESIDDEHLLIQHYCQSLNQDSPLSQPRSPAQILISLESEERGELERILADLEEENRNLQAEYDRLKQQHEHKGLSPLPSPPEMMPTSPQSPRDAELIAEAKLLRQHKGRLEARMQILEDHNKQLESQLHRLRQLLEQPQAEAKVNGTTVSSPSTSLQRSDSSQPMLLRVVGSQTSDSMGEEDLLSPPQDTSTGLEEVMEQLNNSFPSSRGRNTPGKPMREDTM

For “full-length α-dystrobrevin-1 construct (exons 1-21) (natural protein)”, the fold (+Ab over control without antibody), average of five experiments came to 3 fold in test [1] and 3.3 fold in test [2]. Moreover, the fold (+Ab over control without antibody) in test [2] was 3.1 fold and 4 fold and 3 fold.
As for “α-dystrobrevin-2 construct (exons 1-17B) (natural protein)”, the fold (+Ab over control without antibody) in test [1] was 3.7 fold and 4.2 fold and 3.3 fold. In addition, in test [2], the fold (+Ab over control without antibody) is 1.3 fold and 0.9 fold and 1 fold; the fold (+Ab over control without antibody), average of five experiments amounted to 1 fold.

The values above are taken from paper PMC2149339.
